Measurements from PMC2386288, “Kinetics and Ligand-Binding Preferences of Mycobacterium tuberculosis Thymidylate Synthases, ThyA and ThyX” (PLoS ONE, 2008).
Like-named read-outs stand apart in the source and are kept apart here.

Tests used:
[1] = tested on: NC(=O)C1=CN([C@@H]2O[C@H](COP(=O)(O)OP(=O)(O)OC[C@H]3O[C@@H](n4cnc5c(N)ncnc54)[C@H](OP(=O)(O)O)[C@@H]3O)[C@@H](O)[C@H]2O)C=CC1; test: purified protein; settings: FAD
[2] = tested on: Nc1nc2c(c(=O)[nH]1)N1CN(c3ccc(C(=O)N[C@@H](CCC(=O)O)C(=O)O)cc3)CC1CN2; test: purified protein
[3] = tested on: O=c1ccn([C@H]2C[C@H](O)[C@@H](COP(=O)(O)O)O2)c(=O)[nH]1; test: purified protein
ThyX = target: T1, ThyX (Mycobacterium tuberculosis, UniProt P9WG57); test: biochemical
T1 construct: C-terminal His-Tag

ThyA = target: T2, ThyA (Mycobacterium tuberculosis, UniProt P9WFR9); test: biochemical
T2 construct: N-terminal His-Tag

SEC = target: the molecule itself; test: SEC

T2 sequence (P9WFR9 2-266): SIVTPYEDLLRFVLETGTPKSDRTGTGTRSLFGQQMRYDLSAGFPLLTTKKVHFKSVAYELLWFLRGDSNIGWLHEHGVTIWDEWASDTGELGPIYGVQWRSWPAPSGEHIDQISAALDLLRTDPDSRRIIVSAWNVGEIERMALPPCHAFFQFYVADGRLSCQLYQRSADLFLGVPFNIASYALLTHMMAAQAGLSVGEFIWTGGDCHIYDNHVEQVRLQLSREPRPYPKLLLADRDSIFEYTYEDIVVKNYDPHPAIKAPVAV

In the case of ThyX (Mycobacterium tuberculosis H37Rv), the Km [1] is reported as 47 ± 10 µM, the Km ([2]; FAD) is reported as 4.0 ± 1 µM and the Km ([3]; FAD) is reported as 3 ± 0.7 µM.

In the case of O=c1[nH]c(=O)n([C@H]2C[C@H](O)[C@@H](COP(=O)(O)O)O2)cc1F [FdUMP, 5-Fluoro-2′-deoxyuridine 5′-monophosphate], the Ki (ThyX) is reported as 100 ± 10 nM and the Ki (ThyA) is reported as 2 ± 0.2 nM.

For ThyA (Mycobacterium tuberculosis H37Rv), the Km [2] was 70 ± 30 µM and the Km ([3]; mTHF) was 4 ± 0.7 µM.

B1: Histidine-tagged M. tuberculosis ThyX (flavin-dependent thymidylate synthase) (enzyme)
chain: MAETAPLRVQLIAKTDFLAPPDVPWTTDADGGPALVEFAGRACYQSWSKPNPKTATNAGYLRHIIDVGHFSVLEHASVSFYITGISRSCTHELIRHRHFSYSQLSQRYVPEKDSRVVVPPGMEDDADLRHILTEAADAARATYSELLAKLEAKFADQPNAILRRKQARQAARAVLPNATETRIVVTGNYRAWRHFIAMRASEHADVEIRRLAIECLRQLAAVAPAVFADFEVTTLADGTEVATSPLATEA
notes: also called FDTS
In the case of B1, the “stoichiometry N” value (SEC) is reported as 4.
